Assay results as given in patent US20150017120A1 (MIT, published 2015).

T1: soluble murine CD25 (murine, UniProt P01590 22-236, limits assumed)
T1 construct: also called soluble CD25; mouse CD25
T1 sequence (looked up): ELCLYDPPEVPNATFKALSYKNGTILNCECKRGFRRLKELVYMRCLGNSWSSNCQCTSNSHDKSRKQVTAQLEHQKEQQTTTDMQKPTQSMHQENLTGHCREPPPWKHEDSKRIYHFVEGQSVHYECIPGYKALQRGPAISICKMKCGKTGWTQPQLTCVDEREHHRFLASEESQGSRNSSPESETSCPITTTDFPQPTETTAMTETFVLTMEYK


biological target: T1, soluble murine CD25; assay: yeast surface display, labeling with soluble CD25, flow cytometry
Description: While all H82 and Q121 mutants retained CD25 binding, no CD25 binding was detected for E76 mutants (FIG. 4).

Row | Binder | binding result
1 | E76A IL-2 (ligand, also called E76 mutants) APTSSSTSSSTAEAQQQQQQQQQQQQHLEQLLMDLQELLSRMENYRNLKLPRMLTFKFYLPKQATELKDLQCLEDALGPLRHVLDLTQSKSFQLEDAENFISNIRVTVVKLKGSDNTFECQFDDESATVVDFLRRWIAFCQSIISTSPQ | no binding (tested: 50 nM soluble CD25)
2 | E76R mouse IL-2 (ligand, also called E76 mutants) APTSSSTSSSTAEAQQQQQQQQQQQQHLEQLLMDLQELLSRMENYRNLKLPRMLTFKFYLPKQATELKDLQCLEDRLGPLRHVLDLTQSKSFQLEDAENFISNIRVTVVKLKGSDNTFECQFDDESATVVDFLRRWIAFCQSIISTSPQ | no binding (tested: 5 or 50 nM soluble CD25)
3 | E76G IL-2 (ligand, also called E76 mutants) APTSSSTSSSTAEAQQQQQQQQQQQQHLEQLLMDLQELLSRMENYRNLKLPRMLTFKFYLPKQATELKDLQCLEDGLGPLRHVLDLTQSKSFQLEDAENFISNIRVTVVKLKGSDNTFECQFDDESATVVDFLRRWIAFCQSIISTSPQ | no binding (tested: 50 nM soluble CD25)
4 | E76F mouse IL-2 (ligand, also called E76 mutants) APTSSSTSSSTAEAQQQQQQQQQQQQHLEQLLMDLQELLSRMENYRNLKLPRMLTFKFYLPKQATELKDLQCLEDFLGPLRHVLDLTQSKSFQLEDAENFISNIRVTVVKLKGSDNTFECQFDDESATVVDFLRRWIAFCQSIISTSPQ | no binding (tested: 5 or 50 nM soluble CD25)

biological target: T1, soluble murine CD25; assay: method not stated (legend of the schematic of Fc/IL-2)

Row | Kd [nM] | Binder
5 | ~50 | D265AFc/IL-2 (Fc fusion, also called D265A Fc/wt mIL-2) chain 1: EPRVPITQNPCPPLKECPPCAAPDLLGGPSVFIFPPKIKDVLMISLSPMVTCVVVAVSEDDPDVQISWFVNNVEVHTAQTQTHREDYNSTLRVVSALPIQHQDWMSGKEFKCKVNNRALPSPIEKTISKPRGPVRAPQVYVLPPPAEEMTKKEFSLTCMITGFLPAEIAVDWTSNGRTEQNYKNTATVLDSDGSYFMYSKLRVQKSTWERGSLFACSVVHEGLHNHLTTKTISRSLGKGGGSAPTSSSTSSSTAEAQQQQQQQQQQQQHLEQLLMDLQELLSRMENYRNLKLPRMLTFKFYLPKQATELKDLQCLEDELGPLRHVLDLTQSKSFQLEDAENFISNIRVTVVKLKGSDNTFECQFDDESATVVDFLRRWIAFCQSIISTSPQHHHHHH chain 2: EPRVPITQNPCPPLKECPPCAAPDLLGGPSVFIFPPKIKDVLMISLSPMVTCVVVAVSEDDPDVQISWFVNNVEVHTAQTQTHREDYNSTLRVVSALPIQHQDWMSGKEFKCKVNNRALPSPIEKTISKPRGPVRAPQVYVLPPPAEEMTKKEFSLTCMITGFLPAEIAVDWTSNGRTEQNYKNTATVLDSDGSYFMYSKLRVQKSTWERGSLFACSVVHEGLHNHLTTKTISRSLGKGGGSDYKDDDDK

biological target: T1, soluble murine CD25; assay: yeast surface display, titration with soluble murine CD25

Row | binding result | Binder
6 | binds | mIL-2 QQ 6.2-4 (ligand) APTSSSTSSSTAEAQQQQQQQQQQQQHLEQLLMDLQELLSRMEDSRNLRLPRMLTFKFYLPKQATELEDLQCLEDELEPLRQVLDLTQSKSFQLEDAENFISNIRVTVVKLKGSDNTFECQFDDEPATVVGFLRRWIAFCQSIISTSPQ
7 | binds | mIL-2 QQ 6.2-13 (ligand, Reversion mutant) APTSSSTSSSTAEAQQQQQQQQQQQQHLEQLLMDLQELLSRMEDHRNLRLPRMLTFKFYLPEQATELKDLQCLEDELEPLRQVLDLTQSKSFQLEDAENFISNIRVTVVKLKGSDNTFECQFDDEPATVVDFLRRWIAFCQSIISTSPQ
8 | binds | mIL-2 QQ 6.2-10 (ligand, Reversion mutant) APTSSSTSSSTAEAQQQQQQQQQQQQHLEQLLMDLQELLSRMEDHRNLRLPRMLTFKFYLPEQATELEDLQCLEDELEPLRQVLDLTQSKSFQLEDAENFISNIRVTVVKLKGSDNTFECQFDDEPATVVDFLRRWIAFCQSIISTSPQ
9 | binds | mIL-2 QQ 6.2-11 (ligand, Reversion mutant) APTSSSTSSSTAEAQQQQQQQQQHLEQLLMDLQELLSRMEDSRNLRLPRMLTFKFYLPEQATELKDLQCLEDELEPLRQVLDLTQSKSFQLEDAENFISNIRVTVVKLKGSDNTFECQFDDEPATVVDFLRRWIAFCQSIISTSPQ
10 | binds | mIL-2 QQ 6.2-8 (ligand, Reversion mutant) APTSSSTSSSTAEAQQQQQQQQHLEQLLMDLQELLSRMEDHRNLRLPRMLTFKFYLPKQATELEDLQCLEDELEPLRQVLDLTQSKSFQLEDAENFISNIRVTVVKLKGSDNTFECQFDDEPATVVDFLRRWIAFCQSIISTSPR
